Data: patent US20090074762A1

Target: T1, TweakR on cells (TweakR-expressing cells, TweakR transfectant cell line, A375 melanoma cells, tumor tissue) (human) (UniProt Q9NP84)
T1 sequence: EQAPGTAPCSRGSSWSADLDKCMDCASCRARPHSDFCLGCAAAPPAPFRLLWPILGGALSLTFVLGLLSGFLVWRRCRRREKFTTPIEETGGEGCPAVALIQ
Assay: cell-based or functional assay

agonist activity (IL-8 release assay): 12%
B1: anti-TweakR antibody ITEM4 (antibody, from another filing, V domains shown)
VH: QVQLQQSGPELVKPGASVKMSCKASGYTFTDFIIAWVKQRTGQGLEWIGEIYPGTGRTYYSEKFRGKATLTADKSSNTAYMQLSSLTSVDSAVYFCARRTIYYDYDGDYWGQGTTLTVSS
VL: DIVMTQAAFSNPVTLGTSASISCRSSKSLLHSNGITYLYWYLQKPGQSPQLLIYQMSNLASGVPDRFSSSGSGTDFTLRISRVEAEDVGVYYCAHNLELPWTFGGGTKLELK
